We go through 38 variants from the RNAGym collection of RNA variant scans (doi:10.1073/pnas.2313332121).

Sequences and labels used below:
B1: TPR 5TU (parent)
chain: GGAUCUUCUCGAUCUAACAAAAAAGACAAAUCUGCCACAAAGCUUGAGAGCAUCUUCGGAUGCAGAGGCGGCAGCCUUCGGUGGCGCGAUAGCGCCAACGUUCUCAACUAUGACACGCAAAACGCGUGCUCCGUUGAAUGGAGUUUAUCAUG

Fewer inactive variants are shown than the library holds. Where only a bound is given, the exact number is not on record here.

This data set covers variants of B1. The data set is described as follows: polymerase ribozyme fitness, log enrichment relative to wild type (log ratio); higher = more active; in vitro selection for triplet polymerase activity. The gist of the method:
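Mutant libraries of both subunits of a heterodimeric triplet polymerase ribozyme were PCR-built, transcribed, and selected once in triplicate, with frozen incubation at −7 °C and capture of gel-excised extended constructs on streptavidin beads before RT-PCR. Illumina sequencing of input and output libraries was filtered to genotypes with ≥10 input reads and ≥1 read per output. Fitness is the logarithm of genotype enrichment over wild-type enrichment, using inverse-variance-weighted replicate averages. The logarithm is base 2.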
As for GGAUCUUCUCGAUCUAACAAAAAAGACAAAUCUGCCACAAAGCUUGAGAGCAUCUUCGGAUGCAGACGCGGCAGCCUUCGGUGACGCGAUAGCGCCAAUGUUCUAAACUAUGACCCGCAAAACGCGUGCUCCGUUGCAUGAAGUUUAUCAUG, the “polymerase ribozyme fitness (log ratio)” value is ≤ -4.2. The value for GGAUCUUCUCGAUCUAACAAAAAAGACAAAUCUGCCACAAAGCUUGAGAGCAUCUUCGGAUGCAGAAGCGGCAGCCUUCGGUGGCGCGAUGGCGCCAACGUUCUCAACUAUGACACGCAAAACGCGUGCUCCGUGGAAUGGAGUUUAUUAUG was ≤ -4.2. In the case of GGAUCUUCUCGAUCUAACAAAAAAGACAAAUCUGCCACAAAGCUUGAGAGCAUCUUCGGAUGCAGACGCGGCAGCCUUCGGUGGCGCGAUAGCGCCAACGUUCUCAACUAUGACACGCAAAACGCGUGCUCCGUUGAAUGGAGUUUAUCAUG it was -3.97; in that of GGAUCUUCUCGAUCUAACAAAAAAGACAAAUCUGCCACAAAGCUUGAGAGCAUCUUCGGAUGCAGAAGCGGCAGCCUUCGGUGGCGCGAUAGCGCCAACGUUCUCAACUAUGACACGCAAAACGCGUGCUCCGUUGAAUGGAGUUUAUCAUG, -3.22; in that of GGAUCUUCUCGAUCUAACAAAAAAGACAAAUCUGCCACAAAGCUUGAGAGCAUCUUCGGAUGCAGACGCGGCAGCCUUCGGUGGCGCGAUAGUGCCAACGUUCUCACCUAUGACACGCAAAACGGGUGCUCCGUUGAAUGGAGUUUAUCAUG, ≤ -4.2.

With GGAUCUUCUCGAUCUAACAAAAAAGACAAAUCUGCCACAAAGCUUGAGAGCAUCUUCGGAUGCAGACGCGGCAGCCUUCGGUGACGCGAUAGCGCCAACGUUCUCAACUAUGACACGCAAAACGCGUGCUCCGUUGAAAUGAGUUUAUCAUG, the “polymerase ribozyme fitness (log ratio)” value was ≤ -4.2. Take GGAUCUUCUCGAUCUAACAAAAAAGACAAAUCUGCCACAAAGCUUGAGAGCAUCUUCGGAUGCAGUGGCGGCAGCCUUCGGUGGCGAGAUAGCGCCAACGUUCUCUACUAUGACACGCAAAACGCGUGCUCCGUUGAAUGGACUUUAUCAUG: the “polymerase ribozyme fitness (log ratio)” value is ≤ -4.2. In the case of GGAUCUUCUCGAUCUAACAAAAAAGACAAAUCUGCCACAAAGCUUGAGAGCAUCUUCGGAUGCAGACACGGCAGCCUUCGGUGGUGCGAUAGCGCCAAAGUUCUCAACUAUGACUCGCAAAACGCGUGCUCCGUUGAAUGGAGUUUAUCAUG it was ≤ -4.2; in that of GGAUCUUCUCGAUCUAACAAAAAAGACAAAUCUGCCACAAAGCUUGAGAGCAUCUUCGGAUGCAGACGCGGCAGCCUUCGGUGGCGCGAUAGCGCCCACGUUGUCAACUAUGACACGCAAAACGUGUGUUCCGUUGAAUGGUCUUUAUCUUG, ≤ -4.2. Take GGAUCUUCUCGAUCUAACAAAAAAGACAAAUCUGCCACAAAGCUUGAGAGCAUCUUCGGAUGCAGACGCGGCAGCUUUCGGUGGCGCGAUAGCGCUAACGUUCUCAACUAUGACACGCAAAACGCGUGCUCCGUUGAAUGGAGUUUAUUAUG: the “polymerase ribozyme fitness (log ratio)” value was ≤ -4.2. In the case of GGAUCUUCUCGAUCUAACAAAAAAGACAAAUCUGCCACAAAGCUUGAGAGCAUCUUCGGAUGCAGUGGCGGCAGCCUUCGGUGGCGCGAUAGCGCCAACGUUCUCAACUAUGACACGCAAAACGCGUGCUCCGUUGAAUGGAGUUUAUCAUG it was -3.46; in that of GGAUCUUCUCGAUCUAACAAAAAAGACAAAUCUGCCACAAAGCUUGAGAGCAUCUUCGGAUGCAGAAGCGGCAGCCUUCGGUGUCGCGAUAGCGCCAACGUUCUCAACUAUGACACGCAAAACGCGUGCUCCGUUGAAUGGAGUUUAUCAUG, ≤ -4.2.

For GGAUCUUCUCGAUCUAACAAAAAAGACAAAUCUGCCACAAAGCUUGAGAGCAUCUUCGGAUGCAGACGCGGCAGCCUUCGGUGGCGCGAUAGGGCCAAGGUUCUCAACUAUGACACGCAAAACGCGUGCUCCGUUGUAUGGAGUUAAUCAUG, the “polymerase ribozyme fitness (log ratio)” value was ≤ -4.2. With GGAUCUUCUCGAUCUAACAAAAAAGACAAAUCUGCCACAAAGCUUGAGAGCAUCUUCGGAUGCAGACGCGGCAGCCUUCGGUGGCGCGAUAGGGCCAACGUUCUCAACUAUGACACGGAAAACGCGUGCUCCGUUGAAUGGAGUUUAUCCUG, the “polymerase ribozyme fitness (log ratio)” value is ≤ -4.2. The value for GGAUCUUCUCGAUCUAACAAAAAAGACAAAUCUGCCACAAAGCUUGAGAGCAUCUUCGGAUGCAGGGGCGGCAGCCUUCGGUGGCGCGAUAGCGCCAACGUACUCAACUAUGACACGCAAAACGCGUGCUCCGUCGAAUGGAGUUUAUCAUG was ≤ -4.2. In the case of GGAUCUUCUCGAUCUAACAAAAAAGACAAAUCUGCCACAAAGCUUGAGAGCAUCUUCGGAUGCAGAAGCGGAAGCCUUCGGUGGCGCGAUAGCGCCAACGUUCUCAACUAUGACACGCAAAACGCGUGCUCCGUUGAAUGGUGUUUAUCAUG it was ≤ -4.2; in that of GGAUCUUCUCGAUCUAACAAAAAAGACAAAUCUGCCACAAAGCUUGAGAGCAUCUUCGGAUGCAGACGGGGCAGCCUUCGGUGGCGCGAUUGCGCCAACGUUCUCAACUAUGACACGCAAAACGCGUGCUCCGUUGAAUGGAGUUUAUCAUG, ≤ -4.2. In the case of GGAUCUUCUCGAUCUAACAAAAAAGACAAAUCUGCCACAAAGCUUGAGAGCAUCUUCGGAUGCAGUGGCGGCAGCCUUCGGUGGCGCGAUAGCGCAAACGUUCUCAACUAAGACACGCAAAGCGCGUGCUCCGUUGACUGGAGUUUAUCAUG it was ≤ -4.2; in that of GGAUCUUCUCGAUCUAACAAAAAAGACAAAUCUGCCACAAAGCUUGAGAGCAUCUUCGGAUGCAGUGGCGGCAGCCUUCGGUGGCGCGGUAGCGCCAACGUUCUCAACUAUGACACGCAAAACGCGUGCUCCGUUGAAUGGAGUUUAUCAUG, ≤ -4.2. As to GGAUCUUCUCGAUCUAACAAAAAAGACAAAUCUGCCACAAAGCUUGAGAGCAUCUUCGGAUGCAGACGCGGCAGCCUUCGGUGGCGAGAUAGCGCCAACAUUCUCAACUAUGACACGCAAAACGCGUGCUCCGUUGAAUGGAGUUUAUCAUG, the “polymerase ribozyme fitness (log ratio)” value was ≤ -4.2. As to GGAUCUUCUCGAUCUAACAAAAAAGACAAAUCUGCCACAAAGCUUGAGAGCAUCUUCGGAUGCAGAAGCGGCAGCCUUCGAUGGCGCGAUCGCGCCAACGUUCUCAACUAUGACACGCAAAACGCGUGCUCCGUUGCAUGGAGUUUACCAUG, the “polymerase ribozyme fitness (log ratio)” value is ≤ -4.2.

On to GGAUCUUCUCGAUCUAACAAAAAAGACAAAUCUGCCACAAAGCUUGAGAGCAUCUUCGGAUGCAGGGGCGGCAGCCUUCGGUGGCGCGAUAGCGCCAACGUUCUCAACUACGACACGCAAAACGCGUGCUCCGUUGAAUGGAGUUUAUCAUG, for which the “polymerase ribozyme fitness (log ratio)” value was ≤ -4.2. The value for GGAUCUUCUCGAUCUAACAAAAAAGACAAAUCUGCCACAAAGCUUGAGAGCAUCUUCGGAUGCAGUGGCGGCAGCGUUCGGUGGAGCGAUAGCGUCAACGUGCUCAACUAUGUCAAGCAAAACGCGUGCUCCGUUGAAUGGCGUUUAUCAUG was ≤ -4.2.

For GGAUCUUCUCGAUCUAACAAAAAAGACAAAUCUGCCACAAAGCUUGAGAGCAUCUUCGGAUGCAGACGCGGCUGCCUUCGGUGGCGCGAUGGCGCCAACGUUCUCAACUAUGACACGCAAAACGCGUGCUCCGUUAGAUGGAGUUUAUCAUG, the “polymerase ribozyme fitness (log ratio)” value was ≤ -4.2. Take GGAUCUUCUCGAUCUAACAAAAAAGACAAAUCUGCCACAAAGCUUGAGAGCAUCUUCGGAUGCAGUGGCGGCAGGCUUCGGGGGCGCGAUAGCGCCAACGUUCUCCACUAUGACAUGCAAAACGCGUGCUCCGUUGAAUGGAGUUUAUCAUG: the “polymerase ribozyme fitness (log ratio)” value was ≤ -4.2. In the case of GGAUCUUCUCGAUCUAACAAAAAAGACAAAUCUGCCACAAAGCUUGAGAGCAUCUUCGGAUGCAGUGCCGGCAGCCUUCGGUGGCGCGAUAGCGCCAACGUUCUAAACUAUGACACGCAAAACGCGUGCUCCGUUGAAUGGAGUUUAUCAUG it was ≤ -4.2; in that of GGAUCUUCUCGAUCUAACAAAAAAGACAAAUCUGCCACAAAGCUUGAGAGCAUCUUCGGAUGCAGAAGCGGCAGCCUUCGGUGGCGUGAUAGCGCCAACGUUCUCAUCUAUGACACGCAAAACGGCUGCUCCGUUGAAUGGAGUUUAUCAUG, -4.14; in that of GGAUCUUCUCGAUCUAACAAAAAAGACAAAUCUGCCACAAAGCUUGAGAGCAUCUUCGGAUGCAGACGCGGCAGCCUUCCGUGGCGCGAUAACGCCAACGUUAUCAACUAUGACACGGAAAACGCGUGCUCCAUUGAAUGGAGUUUAUCAUG, ≤ -4.2. The value for GGAUCUUCUCGAUCUAACAAAAAAGACAAAUCUGCCACAAAGCUUGAGAGCAUCUUCGGAUGCAGUGGCGGCAGCCUUCGGUGGCGCAAUAGCGCCAACGUUCUCAACUAUGACACGCAAAACGCGUGCUCCGUUGAAUGGAGUGUACCCUG was ≤ -4.2; that for GGAUCUUCUCGAUCUAACAAAAAAGACAAAUCUGCCACAAAGCUUGAGAGCAUCUUCGGAUGCAGAAGCGGCAGCCUUCGGUGGCGCGAUAGCGCCAUCGUUCUCAACUAUGACACGCAAAACGCGUGCUCCGUUGAACGGAGUUUAACAUG was ≤ -4.2. Consider GGAUCUUCUCGAUCUAACAAAAAAGACAAAUCUGCCACAAAGCUUGAGAGCAUCUUCGGAUGCAGACGCGCCAGCCUUCGGUGGCACGAUAGCGCCAACGUUCUCAUCUAUGACACGCAAUACGCGUGCUCCGUUGAAUGGAGGUUAUCAUG, for which the “polymerase ribozyme fitness (log ratio)” value is ≤ -4.2. In the case of GGAUCUUCUCGAUCUAACAAAAAAGACAAAUCUGCCACAAAGCUUGAGAGCAUCUUCGGAUGCAGAAGCGGCAGCCUGCGGUGGCUCGAUAGCGCCAAUGUUCUCAACUAUGACACGCAAAACGCGUGCUCCGUUGAAUGAAGUUUAUCAUG it was ≤ -4.2; in that of GGAUCUUCUCGAUCUAACAAAAAAGACAAAUCUGCCACAAAGCUUGAGAGCAUCUUCGGAUGCAGAAGCGGCAGCCUUCGGUGGCGCGAUAGCGCCAACGUUCUCAACUAUGAUACGCAAAACGCGUGCUCCGGUGAAUGGAGUUUAUCCUG, ≤ -4.2; in that of GGAUCUUCUCGAUCUAACAAAAAAGACAAAUCUGCCACAAAGCUUGAGAGCAUCUUCGGAUGCAGACACGGCAGCCUUCGGUAGCGCGAAAGCGCCAACGUUCUCAACUAUGACACACAAAACGCGUGCUCCGUUGAAUGGAGUUUAUCAUG, ≤ -4.2.

Take GGAUCUUCUCGAUCUAACAAAAAAGACAAAUCUGCCACAAAGCUUGAGAGCAUCUUCGGAUGCAGACGCGGCAGCCUUCGGUAGCGCGAUAGCGCCAACGUUCUCAACUAUGACACGCAAAAGGCGUGCUCCGUUGAAUGGAGUUUAUCAUG: the “polymerase ribozyme fitness (log ratio)” value was ≤ -4.2. In the case of GGAUCUUCUCGAUCUAACAAAAAAGACAAAUCUGCCACAAAGCUUGAGAGCAUCUUCGGAUGCAGAAGCGGCAGCCUUCGGUGGCGCGAUAGCGCAAACGUUCUCAACUAUGACACGCAAAACGCGUGCUCCGUUGAAUGGAGUUUAUCAUG it was -3.46; in that of GGAUCUUCUCGAUCUAACAAAAAAGACAAAUCUGCCACAAAGCUUGAGAGCAUCUUCGGAUGCAGACGCGGCAGCCUUCGGUAGCGCGAUAGCGCCAACGUUCUCAACUAUGACACGCAAAACGCGUGCUCCGUUGAAUGGAGUUUAUCAUG, ≤ -4.2; in that of GGAUCUUCUCGAUCUAACAAAAAAGACAAAUCUGCCACAAAGCUUGAGAGCAUCUUCGGAUGCAGAAGCGGCAGCCUUCGGUGGGGCGAUAGCGCCAACGUUCUCGACUAUGACACGCAAAACGCGUGUUCCGUUGAAUCGAAUUUAUCAUG, ≤ -4.2.
